Laboratory results from article PMC7306444.

How the values were obtained:
Assay in all cases: fluorescence anisotropy
[1] = target: GST-hFMRP KH0 (Homo sapiens, UniProt Q06787 126-201)
[2] = target: GST-hFMRP KH1 (Homo sapiens, UniProt Q06787 216-280)
[3] = target: GST-hFMRP KH1-KH2 (Homo sapiens, UniProt Q06787 216-425)
[4] = target: GST-hFMRP KH2 (Homo sapiens, UniProt Q06787 281-425)
[5] = target: GST-hFMRP KH0-KH1-KH2 (Homo sapiens, UniProt Q06787 126-425)
[6] = target: GST-hFMRP RGG (Homo sapiens, UniProt Q06787 531-632)
[7] = target: NT-hFMRP (Homo sapiens, UniProt Q06787 218-632)
[8] = target: NT-hFMRP ΔKH1 (Homo sapiens, UniProt Q06787 281-632)

UGACGGACGGACGGACGU (structured_RNA) [(GACG)4]: no binding [1]; no binding [2]; no binding [3]. UGACGGACGGACGGACGU (structured_RNA) [(GACG)4]: no binding [4]; no binding [5]; no binding [6]. UGACGGACGGACGGACGU (structured_RNA) [(GACG)4]: no binding [7].

With UGGGGU (structured_RNA) [UG4U] the Kd [8] was 80 ± 7 nM, the Kd [6] was 210 ± 18 nM and the Kd [7] was 110 ± 16 nM.

GGGGGGGGGGGGGGGGGU (structured_RNA) [PolyG17] gave a Kd [8] of 17 ± 3 nM, a Kd [6] of 8.6 ± 1.2 nM and a Kd [7] of 14 ± 2 nM.

CCCCCCCUGGACCCCCCU (ssRNA) [UGGA]: no binding [7].

CCCCCCCACUUCCCCCCU (ssRNA) [ACUU]: no binding [7].

UGGACUUGGACUUGGACU (ssRNA, m6A at position 10) [UGGm6ACU] was tested, and the Kd [7] was 1250 ± 610 nM.

UUGGAUGGAUGGAUGGAU (structured_RNA) [(UGGA)4]: no binding [1]; no binding [2]; no binding [3]. For the same binder, the binding result [4] was “no binding”, the binding result [5] was “no binding” and the Kd [8] was 840 ± 39 nM. It also gave a Kd [7] of 710 ± 50 nM.
